Laboratory results reported in article doi:10.1101/2025.08.19.670962, “Structural basis for binding of RILPL1 to TMEM55B reveals a lysosomal platform for adaptor assembly through a conserved TBM motif” (bioRxiv, 2025).

What was measured:
WT TMEM55B region 80-166 = assay: In vitro pulldown of untagged TMEM55B with His-tagged bait peptides; type: binding; conditions: 10 μM bait, 10 μM prey, Ni2+-agarose, 20 mM Tris pH 8.0, 300 mM NaCl, 20 mM imidazole, 15 minutes, SDS-PAGE, Coomassie, qualitative
Text: Figure 5: In vitro pulldowns of TMEM55B with TBM peptides. (A) Domain organization of TMEM55B interactors depicting the sequence context of the TBM. Regions that are α-helical have been drawn as cylinders; α/βfolds are shown as rectangles; and unstructured segments are zigzag lines. (B) Cartoon depiction of the in vitro pulldown strategy using His-tagged peptides. […] As a control, the R151E variant of TMEM55B was used, which abolishes the interactions with RILPL1 (bottom panel). […] Protein/peptide concentrations were 10μM (see Methods) and visualization was enabled by Coomassie Brilliant Blue G250.
Given that the TBMs reside in flexible regions of the adaptor proteins (Figure 5A), peptides should be able to mimic their interactions with TMEM55B. Peptides corresponding to the potential TBMs were synthesized with an N-terminal hexahistidine tag to enable in vitro pulldowns of TMEM55B (80-166; Figure 5B). Slightly extended peptides beyond the minimal TBMs were generated to preclude any structural or conformational restrictions on the interaction with TMEM55B. The peptide TBM from RILPL1 was used as a positive control, and the mutant R151E™ of TMEM55B provided a negative control. Peptides run on conventional SDS-PAGE gels are generally not visible in this assay. […]

[1] = target: T1, TMEM55B (residues 80-160) (Homo sapiens, UniProt Q86T03); assay: Isothermal titration calorimetry of TBM peptides / OCRL PH domain with TMEM55B; type: binding; conditions: ITC; titration shown in the figure panel (Figure 1G / Figure 6B); value printed in the picture, ±% = fitting error
T1 construct: injected into a cell containing TMEM55B (residues 80-160); hexa-Histidine (N); made in house; host or cells: E. coli BL21(DE3)
T1 sequence (Q86T03 73-153): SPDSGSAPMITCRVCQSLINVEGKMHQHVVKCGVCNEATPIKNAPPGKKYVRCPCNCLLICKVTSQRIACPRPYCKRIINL
Experimental: Calorimetry experiments were performed using an ITC200 (Particular Sciences) as described in dx.doi.org/10.17504/protocols.io.j8nlkr7x6v5r/v1. Experiments were performed 3 or more times for each interacting pair. The TBM peptides were dialyzed together with TMEM55B80-160 (20 mM) Tris-HCl, 150mM NaCl, 5mM and 1mM DTT, pH 7.5). Protein concentrations were calculated based on their absorbance at 280nm using a ND-1000 NanoDrop spectrophotometer (Thermo Scientific), peptide concentration was determined by adding buffer to a known amount of lyophilized peptide factoring in their purity. The proteins were centrifuged at 13,100 x g for 10 minutes prior to the determination of protein concentration and ITC analyses. […]. We used Origin 7.0 with the ITC plugin for data processing, and assumed a single binding mode for data fitting.

B1: OCRL-PH domain: recombinant His-tagged PH domain, residues 1-129 of OCRL, ~16kDa (protein, UniProt Q01968 1-129, looked up, fragment)
chain: MEPPLPVGAQPLATVEGMEMKGPLREPCALTLAQRNGQYELIIQLHEKEQHVQDIIPINSHFRCVQEAEETLLIDIASNSGCKIRVQGDWIRERRFEIPDEEHCLKFLSAVLAAQKAQSQLLVPEQKDS
modifications: PH domain His tag
notes: recombinant His-tagged PH domain, residues 1-129 of OCRL, ~16kDa
pulldown of untagged WT TMEM55B (80-166) by His-tagged bait (WT TMEM55B region 80-166): interacts robustly | pulldown of untagged WT TMEM55B (80-166) by His-tagged bait (WT TMEM55B region 80-166; listed as PH domain of OCRL1): successfully pulldown | Kd [1]: 900 nM
